Reference: US20250368686A1 (OKINAWA INSTITUTE OF SCIENCE AND TECHNOLOGY SCHOOL, published 2025)

What was measured:
[1] = biological target: the molecule itself; assay: inverse of the homodimer lifetime; after U-50488
[2] = biological target: the molecule itself; assay: calculated from KD (FIG. 2-4f)
Method: Accordingly, by subtracting the signal intensity after the quencher addition from that before the addition, we evaluated the percentages of the OPR molecules remaining in the PM (FIG. 2-s9; FIG. 2-5a). The time courses of the OPR numbers remaining in the PM after time 0 were examined in both the presence and absence of 0.2 μM agonists and ˜3 μM FAM-Xpep-TATs in the cytoplasm (FIG. 2-5b).

[3] = biological target: the molecule itself; assay: cell-based or functional assay
[4] = biological target: the molecule itself; assay: calculated from the equilibrium constants; after U-50488
Method: (§1) The ratios of molecules that exist as dimers vs. monomers (D/M ratios) in terms of the number of protomers were calculated from KD at various expression levels (number density of molecules) (FIG. 2-4e, f). […] When they dissociate into monomers, they will again form dimers, but the rate of dimer formation depends on the number density of the monomers (and thus the expression levels).
(§2) The ratios of the numbers of protomers that exist as dimers vs. monomers at different expression levels in the PM were calculated from the three dynamic equilibrium constants and listed.

[5] = biological target: the molecule itself; assay: inverse of the homodimer lifetime; no agonist
[6] = biological target: the molecule itself; assay: calculated from the equilibrium constants; no agonist
Method: as §1, §2

[7] = biological target: T1, µ-type opioid receptor (MOR), rat, wild type, fluorescently tagged, expressed in the PM of CHO-K1 cells … (rat, UniProt P33535 1-398); assay: dependence of the DOR-MOR colocalisation index on the concentration of the soluble peptide (competition on cells)
T1 construct: whole, on cells; also called WT-MOR; MOR-Halo; not shown: Halo tag

[8] = biological target: T1, µ-type opioid receptor (MOR), rat, wild …; assay: colocalisation index, two-colour single-molecule imaging in CHO-K1 cells
Method: For simple quantification of the tendencies of OPR heterodimer formation, we employed the colocalisation index, a parameter based on the pair cross-correlation function (PCCF of the green and magenta spots), which is a measure of finding molecule B (for example, a green spot) within a 100 nm radius circle around molecule A (for example, a magenta spot) relative to farther distances of 400-500 nm (as a negative control, the video frames in the green channel were rotated 180° before overlaying; Extended Data FIG. 1-2).

[9] = biological target: the molecule itself; assay: calculated from the equilibrium constants; after DAMGO
Method: as §1, §2

[10] = biological target: the molecule itself; assay: inverse of the homodimer lifetime; after DAMGO
[11] = biological target: the molecule itself; assay: inverse of the homodimer lifetime; after SNC-80
[12] = biological target: the molecule itself; assay: calculated from the equilibrium constants; after SNC-80
Method: as §1, §2

[13] = biological target: the molecule itself; assay: colocalization durations; SNC-80 and FAM-Dpep-TAT present

Row | Binder | % of copies existing as dimers at ˜1 copy/µm^2, before agonist [2] | Ca^2+ (FMax-Fb)/Fb; + Agonist + FAM-pep-TAT [3] | koff [5] | D/M ratio (protomers in dimers vs monomers) at 0.3 copies/µm^2 [6] | D/M ratio (protomers in dimers vs monomers) at 1 copies/µm^2 [6] | D/M ratio (protomers in dimers vs monomers) at 3 copies/µm^2 [6] | D/M ratio (protomers in dimers vs monomers) at 10 copies/µm^2 [6] | D/M ratio (protomers in dimers vs monomers) at 30 copies/µm^2 [6] | other results
1 | SNAPf-KOR: rat KOR with the SNAPf tag protein at its N-terminus, expressed in the PM of CHO-K1 cells (Example 2) (receptor, not shown: small tags and cut ends, SNAPf tag covalently labelled with SNAP-Surface 549 or SNAP-CF660R, whole, on cells; Homodimer partner is the same molecule labelled in the other colour; also called WT KOR) SGGGSGGSGGGSGGSGGGSGGMESPIQIFRGEPGPTCAPSACLLPNSSSWFPNWAESDSNGSVGSEDQQLEPAHISPAIPVIITAVYSVVFVVGLVGNSLVMFVIIRYTKMKTATNIYIFNLALADALVTTTMPFQSAVYLMNSWPFGDVLCKIVISIDYYNMFTSIFTLTMMSVDRYIAVCHPVKALDFRTPLKAKIINICIWLLASSVGISAIVLGGTKVREDVDVIECSLQFPDDEYSWWDLFMKICVFVFAFVIPVLIIIVCYTLMILRLKSVRLLSGSREKDRNLRRITKLVLVVVAVFIICWTPIHIFILVEALGSTSHSTAVLSSYYFCIALGYTNSSLNPVLYAFLDENFKRCFRDFCFPIKMRMERQSTNRVRNTVQDPASMRDVGGMNKPV | 33% | 2.46 (FMax-Fb)/Fb | 6.71 s⁻¹ | 0.19 | 0.5 | 1.08 | 2.28 | 4.26 | koff [1]: 17.9 s⁻¹; D/M ratio (protomers in dimers vs monomers) at 0.3 copies/µm^2 [4]: 0.07; D/M ratio (protomers in dimers vs monomers) at 1 copies/µm^2 [4]: 0.22; D/M ratio (protomers in dimers vs monomers) at 3 copies/µm^2 [4]: 0.52; D/M ratio (protomers in dimers vs monomers) at 10 copies/µm^2 [4]: 1.2; D/M ratio (protomers in dimers vs monomers) at 30 copies/µm^2 [4]: 2.35
2 | SDTFPSAFPSASANASGSPGARS (also called DpepDM(20-42); DpepDM) [Dpep(20-42)DM, soluble peptide with the N-terminal domain sequence aa20-42 of DOR] | – | – | – | – | – | – | – | – | Kd [7]: < 100 nM
3 | κ-type opioid receptor (KOR), rat, wild type, fluorescently tagged, expressed in the PM of CHO-K1 cells (Example 1) (receptor, UniProt P34975 1-380, looked up, whole, on cells; also called WT-KOR; κ-OPR; not shown: fluorescent tag protein) MESPIQIFRGEPGPTCAPSACLLPNSSSWFPNWAESDSNGSVGSEDQQLEPAHISPAIPVIITAVYSVVFVVGLVGNSLVMFVIIRYTKMKTATNIYIFNLALADALVTTTMPFQSAVYLMNSWPFGDVLCKIVISIDYYNMFTSIFTLTMMSVDRYIAVCHPVKALDFRTPLKAKIINICIWLLASSVGISAIVLGGTKVREDVDVIECSLQFPDDEYSWWDLFMKICVFVFAFVIPVLIIIVCYTLMILRLKSVRLLSGSREKDRNLRRITKLVLVVVAVFIICWTPIHIFILVEALGSTSHSTAVLSSYYFCIALGYTNSSLNPVLYAFLDENFKRCFRDFCFPIKMRMERQSTNRVRNTVQDPASMRDVGGMNKPV | – | – | – | – | – | – | – | – | binding result [8]: no binding
4 | SNAPf-MOR: rat MOR with the SNAPf tag protein at its N-terminus, expressed in the PM of CHO-K1 cells (Example 2) (receptor, not shown: small tags and cut ends, SNAPf tag covalently labelled with SNAP-Surface 549 or SNAP-CF660R, whole, on cells; Homodimer partner is the same molecule labelled in the other colour; also called WT MOR) SGGGSGGSGGGSGGSGGGSGGMDSSTGPGNTSDCSDPLAQASCSPAPGSWLNLSHVDGNQSDPCGLNRTGLGGNDSLCPQTGSPSMVTAITIMALYSIVCVVGLFGNFLVMYVIVRYTKMKTATNIYIFNLALADALATSTLPFQSVNYLMGTWPFGTILCKIVISIDYYNMFTSIFTLCTMSVDRYIAVCHPVKALDFRTPRNAKIVNVCNWILSSAIGLPVMFMATTKYRQGSIDCTLTFSHPTWYWENLLKICVFIFAFIMPVLIITVCYGLMILRLKSVRMLSGSKEKDRNLRRITRMVLVVVAVFIVCWTPIHIYVIIKALITIPETTFQTVSWHFCIALGYTNSCLNPVLYAFLDENFKRCFREFCIPTSSTIEQQNSTRVRQNTREHPSTANTVDRTNHQLENLEAETAPLP | 18% | 2.78 (FMax-Fb)/Fb | 8.47 s⁻¹ | 0.08 | 0.22 | 0.54 | 1.23 | 2.41 | D/M ratio (protomers in dimers vs monomers) at 0.3 copies/µm^2 [9]: 0.06; D/M ratio (protomers in dimers vs monomers) at 1 copies/µm^2 [9]: 0.17; D/M ratio (protomers in dimers vs monomers) at 3 copies/µm^2 [9]: 0.43; D/M ratio (protomers in dimers vs monomers) at 10 copies/µm^2 [9]: 1.02; D/M ratio (protomers in dimers vs monomers) at 30 copies/µm^2 [9]: 2.03; koff [10]: 5.35 s⁻¹
5 | SNAPf-DOR: rat DOR with the SNAPf tag protein at its N-terminus, expressed in the PM of CHO-K1 cells (Example 2) (receptor, not shown: small tags and cut ends, SNAPf tag covalently labelled with SNAP-Surface 549 or SNAP-CF660R, whole, on cells; Homodimer partner is the same molecule labelled in the other colour; also called WT DOR) SGGGSGGSGGGSGGSGGGSGGMEPVPSARAELQFSLLANVSDTFPSAFPSASANASGSPGARSASSLALAIAITALYSAVCAVGLLGNVLVMFGIVRYTKLKTATNIYIFNLALADALATSTLPFQSAKYLMETWPFGELLCKAVLSIDYYNMFTSIFTLTMMSVDRYIAVCHPVKALDFRTPAKAKLINICIWVLASGVGVPIMVMAVTQPRDGAVVCTLQFPSPSWYWDTVTKICVFLFAFVVPILIITVCYGLMLLRLRSVRLLSGSKEKDRSLRRITRMVLVVVGAFVVCWAPIHIFVIVWTLVDINRRDPLVVAALHLCIALGYANSSLNPVLYAFLDENFKRCFRQLCRAPCGGQEPGSLRRPRQATARERVTACTPSDGPGGGAAA | 17% | 2.84 (FMax-Fb)/Fb | 8 s⁻¹ | 0.07 | 0.21 | 0.5 | 1.17 | 2.3 | koff [11]: 3.62 s⁻¹; D/M ratio (protomers in dimers vs monomers) at 0.3 copies/µm^2 [12]: 0.15; D/M ratio (protomers in dimers vs monomers) at 1 copies/µm^2 [12]: 0.4; D/M ratio (protomers in dimers vs monomers) at 3 copies/µm^2 [12]: 0.89; D/M ratio (protomers in dimers vs monomers) at 10 copies/µm^2 [12]: 1.92; D/M ratio (protomers in dimers vs monomers) at 30 copies/µm^2 [12]: 3.62; fold of homodimer lifetime against wild-type DOR in the absence of the agonist [13]: ~1.5 fold
